Reference: the supplement of paper PMC11246515
± gives the standard deviation of the averaged measurements.

Test: total protein half-life in vivo (active degradation + dilution); higher = more stable protein
[1] = E. coli NCM3722 delta-clpP delta-lon delta-hslV, growth: N-lim chemostat, doubling time 6 h
[2] = E. coli NCM3722 delta-clpP, growth: N-lim chemostat, doubling time 6 h
[3] = E. coli NCM3722 delta-hslV, growth: N-lim chemostat, doubling time 6 h
[4] = E. coli NCM3722 delta-lon, growth: N-lim chemostat, doubling time 6 h
[5] = wild type E. coli NCM3722, growth: C-lim chemostat, doubling time 3 h
[6] = wild type E. coli NCM3722, growth: C-lim chemostat, doubling time 12 h
[7] = wild type E. coli NCM3722, growth: N-lim chemostat, doubling time 6 h
[8] = wild type E. coli NCM3722, growth: N-lim chemostat, doubling time 12 h
[9] = wild type E. coli NCM3722, growth: P-lim chemostat, doubling time 6 h
[10] = wild type E. coli NCM3722, growth: P-lim chemostat, doubling time 12 h
[11] = E. coli NCM3722 delta-smpB, growth: N-lim chemostat, doubling time 6 h
[12] = wild type E. coli NCM3722, growth: C-lim chemostat, doubling time 6 h

Sequence | total protein half-life in vivo [1] [h] | total protein half-life in vivo [2] [h] | total protein half-life in vivo [3] [h] | total protein half-life in vivo [4] [h] | total protein half-life in vivo [5] [h] | total protein half-life in vivo [6] [h] | total protein half-life in vivo [7] [h] | total protein half-life in vivo [8] [h] | total protein half-life in vivo [9] [h] | total protein half-life in vivo [10] [h] | total protein half-life in vivo [11] [h] | total protein half-life in vivo [12] [h]
MKRWPVFPRSLRQLVMLAFLLILLPLLVLAWQAWQSLNALSDQAALVNRTTLIDARRSEAMTNAALEMERSYRQYCVLDDPTLAKVYQSQRKRYSEMLDAHAGVLPDDKLYQALRQDLHNLAQLQCNNSGPDAAAAARLEAFASANTEMVQATRTVVFSRGQQLQREIAERGQYFGWQSLVLFLVSLVMVLLFTRMIIGPVKNIERMINRLGEGRSLGNSVSFSGPSELRSVGQRILWLSERLSWLESQRHQFLRHLSHELKTPLASMREGTELLADQVVGPLTPEQKEVVSILDSSSRNLQKLIEQLLDYNRKQADSAVELENVELAPLVETVVSAHSLPARAKMMHTDVDLKATACLAEPMLLMSVLDNLYSNAVHYGAESGNICLRSSLHGARVYIDVINTGTPIPQEERAMIFEPFFQGSHQRKGAVKGSGLGLSIARDCIRRMQGELYLVDESGQDVCFRIELPSSKNTK | 6.52 ± 0.67 | 6.72 ± 0.21 | 6.56 ± 0.21 | 6.41 ± 0.28 | 3.12 ± 0.098 | 10.8 ± 0.2 | 6.16 ± 0.12 | 13.1 ± 1 | 6.8109 ± 0.0031 | 12.6 ± 0.89 | – | –
MEYFDMRKMSVNLWRNAAGETREICTFPPAKRDFYWRASIASIAANGEFSLFPGMERIVTLLEGGEMLLESADRFNHTLKPFQPFAFAADQVVKAKLTAGQMSMDFNIMTRLDVCKAKVRIAERTFTTFGSRGGVVFVINGAWQLGDKLLTTDQGACWFDGRHTLRLLQPQGKLLFSEINWLAGHSPDQVQ | – | – | – | – | 0.307 | – | – | – | – | – | – | –
MNLHEYQAKQLFARYGLPAPVGYACTTPREAEEAASKIGAGPWVVKCQVHAGGRGKAGGVKVVNSKEDIRAFAENWLGKRLVTYQTDANGQPVNQILVEAATDIAKELYLGAVVDRSSRRVVFMASTEGGVEIEKVAEETPHLIHKVALDPLTGPMPYQGRELAFKLGLEGKLVQQFTKIFMGLATIFLERDLALIEINPLVITKQGDLICLDGKLGADGNALFRQPDLREMRDQSQEDPREAQAAQWELNYVALDGNIGCMVNGAGLAMGTMDIVKLHGGEPANFLDVGGGATKERVTEAFKIILSDDKVKAVLVNIFGGIVRCDLIADGIIGAVAEVGVNVPVVVRLEGNNAELGAKKLADSGLNIIAAKGLTDAAQQVVAAVEGK [P0A836] | 4.73 ± 0.42 | 4.59 ± 0.34 | 4.45 ± 0.2 | 4.87 ± 0.23 | 3.08 ± 0.061 | 10.5 ± 1.7 | 4.46 ± 0.14 | 7.39 ± 0.36 | 5.95 ± 0.15 | 12.2 ± 1.2 | 4.18 ± 0.058 | 5.79 ± 0.26
MSDTTELVDLAVIFPDLEIELKYACADNITGKAIYQQARCLLHKDAITALAKSISIAQLSGLQLVIYDAYRPQQAQAMLWQACPDPQYVVDVTVGSNHSRGTAIDLTLRDEHGNILDMGAGFDEMHERSHAYHPSVPPAAQRNRLLLNAIMTGGGFVGISSEWWHFELPQAASYPLLADQFSCFISPGTQHVS | 5.51 ± 0.24 | 1.76 | 2.69 ± 0.14 | 3.64 ± 0.33 | 0.884 | – | 2.72 ± 0.22 | 4.71 ± 0.84 | – | – | 1.89 ± 0.17 | 1.97 ± 0.47
MALWGGRFTQAADQRFKQFNDSLRFDYRLAEQDIVGSVAWSKALVTVGVLTAEEQAQLEEALNVLLEDVRARPQQILESDAEDIHSWVEGKLIDKVGQLGKKLHTGRSRNDQVATDLKLWCKDTVSELLTANRQLQSALVETAQNNQDAVMPGYTHLQRAQPVTFAHWCLAYVEMLARDESRLQDALKRLDVSPLGCGALAGTAYEIDREQLAGWLGFASATRNSLDSVSDRDHVLELLSAAAIGMVHLSRFAEDLIFFNTGEAGFVELSDRVTSGSSLMPQKKNPDALELIRGKCGRVQGALTGMMMTLKGLPLAYNKDMQEDKEGLFDALDTWLDCLHMAALVLDGIQVKRPRCQEAAQQGYANATELADYLVAKGVPFREAHHIVGEAVVEAIRQGKPLEDLPLSELQKFSQVIDEDVYPILSLQSCLDKRAAKGGVSPQQVAQAIAFAQARLG | 4.96 ± 1 | 4 ± 0.055 | 3.462 ± 0.011 | 4.05 ± 0.2 | 3.02 ± 0.055 | 10.5 ± 0.22 | 3.77 ± 0.17 | 5.76 ± 0.05 | 5.29 ± 0.76 | 11 ± 0.68 | 3.65 ± 0.28 | 5.59 ± 0.33
MNMKLKTLFAAAFAVVGFCSTASAVTYPLPTDGSRLVGQNQVITIPEGNTQPLEYFAAEYQMGLSNMMEANPGVDTFLPKGGTVLNIPQQLILPDTVHEGIVINSAEMRLYYYPKGTNTVIVLPIGIGQLGKDTPINWTTKVERKKAGPTWTPTAKMHAEYRAAGEPLPAVVPAGPDNPMGLYALYIGRLYAIHGTNANFGIGLRVSHGCVRLRNEDIKFLFEKVPVGTRVQFIDEPVKATTEPDGSRYIEVHNPLSTTEAQFEGQEIVPITLTKSVQTVTGQPDVDQVVLDEAIKNRSGMPVRLN [P0AAX8] | 6.81 ± 1.6 | 5.74 ± 0.27 | 6.22 ± 0.09 | 6.15 ± 0.32 | 2.9 ± 0.083 | 11.6 ± 0.4 | 5.98 ± 0.64 | 13.7 ± 1.3 | 5.606 ± 0.037 | 12.3 ± 0.94 | 6.37 ± 0.75 | 5.76 ± 0.11
MAMFGFPHWQLKSTSTESGVVAPDERLPFAQTAVMGVQHAVAMFGATVLMPILMGLDPNLSILMSGIGTLLFFFITGGRVPSYLGSSAAFVGVVIAATGFNGQGINPNISIALGGIIACGLVYTVIGLVVMKIGTRWIERLMPPVVTGAVVMAIGLNLAPIAVKSVSASAFDSWMAVMTVLCIGLVAVFTRGMIQRLLILVGLIVACLLYGVMTNVLGLGKAVDFTLVSHAAWFGLPHFSTPAFNGQAMMLIAPVAVILVAENLGHLKAVAGMTGRNMDPYMGRAFVGDGLATMLSGSVGGSGVTTYAENIGVMAVTKVYSTLVFVAAAVIAMLLGFSPKFGALIHTIPAAVIGGASIVVFGLIAVAGARIWVQNRVDLSQNGNLIMVAVTLVLGAGDFALTLGGFTLGGIGTATFGAILLNALLSRKLVDVPPPEVVHQEP | – | 4.84 ± 1.8 | 3.33 ± 1.9 | > 8 | – | – | 3.82 | 5.58 ± 0.86 | – | – | 3.66 ± 0.6 | –
